B1: His and myc epitope tagged human NAK amino acids 1-337 (from pcDNA3.1.NAK(1-337)-Hm, expressed in HEK293 cells) (protein)
chain: MASDSPARSLDEIDLSALRDPAGIFELVELVGNGTYGQVYKGRHVKTGQLAAIKVMDVTGDEEEEIKQEINMLKKYSHHRNIATYYGAFIKKNPPGMDDQLWLVMEFCGAGSVTDLIKNTKGNTLKEEWIAYICREILRGLSHLHQHKVIHRDIKGQNVLLTENAEVKLVDFGVSAQLDRTVGRRNTFIGTPYWMAPEVIACDENPDATYDFKSDLWSLGITAIEMAEGAPPLCDMHPMRALFLIPRNPAPRLKSKKWSKKFQSFIESCLVKNHSQRPATEQLMKHPFIRDQPNERQVRIQLKDHIDRTKKKRGEKDETEYEYSGSEEEEEENDSGE
B2: recombinant full-length human NAK protein with hexa His and myc epitope tags (from pcDNA3.1.NAK-Hm, expressed in HEK293 cells) (protein)
chain: MASDSPARSLDEIDLSALRDPAGIFELVELVGNGTYGQVYKGRHVKTGQLAAIKVMDVTGDEEEEIKQEINMLKKYSHHRNIATYYGAFIKKNPPGMDDQLWLVMEFCGAGSVTDLIKNTKGNTLKEEWIAYICREILRGLSHLHQHKVIHRDIKGQNVLLTENAEVKLVDFGVSAQLDRTVGRRNTFIGTPYWMAPEVIACDENPDATYDFKSDLWSLGITAIEMAEGAPPLCDMHPMRALFLIPRNPAPRLKSKKWSKKFQSFIESCLVKNHSQRPATEQLMKHPFIRDQPNERQVRIQLKDHIDRTKKKRGEKDETEYEYSGSEEEEEENDSGEPSSILNLPGESTLRRDFLRLQLANKERSEALRRQQLEQQQRENEEHKRQLLAERQKRIEEQKEQRRRLEEQQRREKELRKQQEREQRRHYEEQMRREEERRRAEHEQEYIRRQLEEEQRQLEILQQQLLHEQALLLEYKRKQLEEQRQAERLQRQLKQERDYLVSLQHQRQEQRPVEKKPLYHYKEGMSPSEKPAWAKEVEERSRLNRQSSPAMPHKVANRISDPNLPPRSESFSISGVQPARTPPMLRPVDPQIPHLVAVKSQGPALTASQSVHEQPTKGLSGFQEALNVTSHRVEMPRQNSDPTSENPPLPTRIEKFDRSSWLRQEEDIPPKVPQRTTSISPALARKNSPGNGSALGPRLGSQPIRASNPDLRRTEPILESPLQRTSSGSSSSSSTPSSQPSSQGGSQPGSQAGSSERTRVRANSKSEGSPVLPHEPAKVKPEESRDITRPSRPASYKKAIDEDLTALAKELRELRIEETNRPMKKVTDYSSSSEESESSEEEEEDGESETHDGTVAVSDIPRLIPTGAPGSNEQYNVGMVGTHGLETSHADSFSGSISREGTLMIRETSGEKKRSGHSDSNGFAGHINLPDLVQQSHSPAGTPTEGLGRVSTHSQEMDSGTEYGMGSSTKASFTPFVDPRVYQTSPTDEDEEDEESSAAALFTSELLRQEQAKLNEARKISVVNVNPTNIRPHSDTPEIRKYKKRFNSEILCAALWGVNLLVGTENGLMLLDRSGQGKVYNLINRRRFQQMDVLEGLNVLVTISGKKNKLRVYYLSWLRNRILHNDPEVEKKQGWITVGDLEGCIHYKVVKYERIKFLVIALKNAVEIYAWAPKPYHKFMAFKSFADLQHKPLLVDLTVEEGQRLKVIFGSHTGFHVIDVDSGNSYDIYIPSHIQGNITPHAIVILPKTDGMEMLVCYEDEGVYVNTYGRITKDVVLQWGEMPTSVAYIHSNQIMGWGEKAIEIRSVETGHLDGVFMHKRAQRLKFLCERNDKVFFASVRSGGSSQVFFMTLNRNSMMNW
B3: His and myc epitope tagged human NAK amino acids 1-529 (from pcDNA3.1.NAK(1-529)-Hm, expressed in HEK293 cells) (protein)
chain: MASDSPARSLDEIDLSALRDPAGIFELVELVGNGTYGQVYKGRHVKTGQLAAIKVMDVTGDEEEEIKQEINMLKKYSHHRNIATYYGAFIKKNPPGMDDQLWLVMEFCGAGSVTDLIKNTKGNTLKEEWIAYICREILRGLSHLHQHKVIHRDIKGQNVLLTENAEVKLVDFGVSAQLDRTVGRRNTFIGTPYWMAPEVIACDENPDATYDFKSDLWSLGITAIEMAEGAPPLCDMHPMRALFLIPRNPAPRLKSKKWSKKFQSFIESCLVKNHSQRPATEQLMKHPFIRDQPNERQVRIQLKDHIDRTKKKRGEKDETEYEYSGSEEEEEENDSGEPSSILNLPGESTLRRDFLRLQLANKERSEALRRQQLEQQQRENEEHKRQLLAERQKRIEEQKEQRRRLEEQQRREKELRKQQEREQRRHYEEQMRREEERRRAEHEQEYIRRQLEEEQRQLEILQQQLLHEQALLLEYKRKQLEEQRQAERLQRQLKQERDYLVSLQHQRQEQRPVEKKPLYHYKEGMSPSE

The proteins below were run against myelin basic protein (MBP) (Sigma).
Chain of myelin basic protein (MBP) (Sigma) (P02687 whole entry): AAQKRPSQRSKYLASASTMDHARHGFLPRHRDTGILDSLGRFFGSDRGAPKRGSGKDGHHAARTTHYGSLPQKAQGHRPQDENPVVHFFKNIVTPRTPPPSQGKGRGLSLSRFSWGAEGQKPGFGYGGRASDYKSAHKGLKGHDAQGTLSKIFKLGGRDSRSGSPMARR

For B1, which “kinase activity (incorporation of phosphate in MBP, 32P, P81 paper, scintillation counting)” value (“kinase activity” for short) is on record?
The value was “display increased kinase activity (FIG. 4b)”.

How did the “kinase activity” value turn out when B2 was run?
The value was “Recombinant NAK protein displays enzymatic (kinase) activity”.

How did the “kinase activity” value turn out when B3 was run?
The value was “display increased kinase activity (FIG. 4b)”.

Reference: patent publication US20020019519
